Assay results: patent US20100093623A1, “COMPOSITIONS AND METHODS FOR […]-LIKE RECEPTOR ACTIVITY AND USES THEREOF” (Burnham Institute for Medical Research, priority 2008, published 2010)

Columns and labels:
[1] = target: T1, (His)6-NLRP1 (NLR family, pyrin domain-containing 1), purified recombinant full-length protein from Sf21 cells (human) (UniProt Q9C000); experiment: cell-based or functional assay
T1 sequence: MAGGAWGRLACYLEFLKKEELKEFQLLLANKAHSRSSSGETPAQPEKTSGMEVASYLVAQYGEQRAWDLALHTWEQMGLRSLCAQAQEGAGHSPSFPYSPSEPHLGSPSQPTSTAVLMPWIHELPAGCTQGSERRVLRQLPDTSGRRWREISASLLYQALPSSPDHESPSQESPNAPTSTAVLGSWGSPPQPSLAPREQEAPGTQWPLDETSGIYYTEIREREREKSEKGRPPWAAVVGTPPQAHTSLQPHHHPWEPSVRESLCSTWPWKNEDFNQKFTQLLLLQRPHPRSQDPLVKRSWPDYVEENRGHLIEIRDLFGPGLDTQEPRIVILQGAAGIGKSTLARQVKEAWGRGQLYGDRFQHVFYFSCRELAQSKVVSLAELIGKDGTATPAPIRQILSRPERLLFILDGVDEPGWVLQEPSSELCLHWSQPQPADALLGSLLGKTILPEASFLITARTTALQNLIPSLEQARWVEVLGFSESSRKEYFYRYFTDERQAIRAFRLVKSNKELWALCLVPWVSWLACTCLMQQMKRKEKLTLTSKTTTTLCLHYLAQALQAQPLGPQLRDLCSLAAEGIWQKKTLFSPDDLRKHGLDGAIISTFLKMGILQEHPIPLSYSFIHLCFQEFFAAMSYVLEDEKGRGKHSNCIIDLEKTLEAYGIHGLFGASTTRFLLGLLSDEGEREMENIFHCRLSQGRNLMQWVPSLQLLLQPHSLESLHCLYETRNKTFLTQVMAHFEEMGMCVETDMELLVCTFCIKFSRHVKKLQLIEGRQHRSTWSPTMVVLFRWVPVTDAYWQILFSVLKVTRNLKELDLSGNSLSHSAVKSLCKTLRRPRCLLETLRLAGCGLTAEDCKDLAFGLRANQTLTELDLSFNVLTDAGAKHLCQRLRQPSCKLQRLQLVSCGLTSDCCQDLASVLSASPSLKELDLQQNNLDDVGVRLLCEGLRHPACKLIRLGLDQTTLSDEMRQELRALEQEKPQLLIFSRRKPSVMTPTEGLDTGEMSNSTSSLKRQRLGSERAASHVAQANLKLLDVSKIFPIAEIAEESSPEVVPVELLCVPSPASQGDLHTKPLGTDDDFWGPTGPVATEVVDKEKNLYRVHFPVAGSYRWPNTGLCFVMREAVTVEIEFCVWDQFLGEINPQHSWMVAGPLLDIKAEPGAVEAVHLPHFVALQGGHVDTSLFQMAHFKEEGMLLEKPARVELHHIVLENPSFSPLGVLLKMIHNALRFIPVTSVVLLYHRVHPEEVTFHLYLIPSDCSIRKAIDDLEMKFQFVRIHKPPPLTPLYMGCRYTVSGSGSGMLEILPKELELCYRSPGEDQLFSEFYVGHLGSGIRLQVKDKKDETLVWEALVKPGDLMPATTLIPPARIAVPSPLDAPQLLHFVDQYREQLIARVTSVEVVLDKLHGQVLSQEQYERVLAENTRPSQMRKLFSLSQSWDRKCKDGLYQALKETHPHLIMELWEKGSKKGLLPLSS

[2] = target: T1, (His)6-NLRP1 (NLR family, pyrin domain-containing 1), purified recombinant full-length protein from Sf21 cells (human); experiment: enzyme kinetics of the reconstituted NLRP1 inflammasome (Caspase-1 activity on Ac-WEHD-AMC); Ki from the competitive inhibition equation

Substance	IC50 (concentration to inhibit NLRP1-induced Caspase-1 activity by 50%) [1]	FITC-ATP binding to NLRP1 (FPA), reduction [1]	Ki [2]
Bcl-2 Loop peptide 35-83 (synthetic)	11.4 nM	–	–
GST-Bcl-2 (Bcl-2 lacking its C-terminal transmembrane domain, ~last 20 amino acids) (from UniProt P08515 1-218; P10415 1-218)	–	60%	8.23 nM
